Measured values taken from PMC5871871 (Autophagy, 2013).
Like-named read-outs stand apart in the source and are kept apart here.

B1: Atg17 (recombinant, His-MBP tag removed by TEV), in the untagged Atg17-Atg31-Atg29 complex (natural protein, S. cerevisiae, UniProt Q06410 1-417, looked up)
chain: MNEADVTKFVNNARKTLTDAQLLCSSANLRIVDIKKKLSSWQLSISKLNFLIVGLRQQGKFLYTILKEGIGTKLIQKQWNQAVLVVLVDEMKYWQYEITSKVQRLDGIVNELSISEKDDTDPSKLGDYISRDNVNLLNDKLKEVPVIERQIENIKLQYENMVRKVNKELIDTKLTDVTQKFQSKFGIDNLMETNVAEQFSRELTDLEKDLAEIMNSLTQHFDKTLLLQDKKIDNDEREELFKVVQGDDKELYNIFKTLHEVIDDVDKTILNLGQFLQAKIKEKTELHSEVSEIINDFNRNLEYLLIFKDISNLIDSFKNSCTQDIQTTKELCEFYDNFEESYGNLVLEAKRRKDVANRMKTILKDCEKQLQNLDAQDQEERQNFIAENGTYLPETIWPGKIDDFSSLYTLNYNVKNP
B2: His-MBP-tagged Atg17 (natural protein, S. cerevisiae, UniProt Q06410 1-417, looked up)
chain: B1 chain

Tests used:
[1] = target: the molecule itself; assay: negative-stain single-particle EM
[2] = target: the molecule itself; assay: negative-stain single-particle EM; remark: listed apart in the source

Protein	stoichiometry N [1]	stoichiometry N [2]
B1	2	–
B2	–	2
